From publication PMC5404317

B1: PINK1-V5 WT (V5-6xHis-tagged PINK1 wild type) [human] / CDC37 [human (endogenous in HeLa)] (parent)
chain 1: MAVRQALGRGLQLGRALLLRFTGKPGRAYGLGRPGPAAGCVRGERPGWAAGPGAEPRRVGLGLPNRLRFFRQSVAGLAARLQRQFVVRAWGCAGPCGRAVFLAFGLGLGLIEEKQAESRRAVSACQEIQAIFTQKSKPGPDPLDTRRLQGFRLEEYLIGQSIGKGCSAAVYEATMPTLPQNLEVTKSTGLLPGRGPGTSAPGEGQERAPGAPAFPLAIKMMWNISAGSSSEAILNTMSQELVPASRVALAGEYGAVTYRKSKRGPKQLAPHPNIIRVLRAFTSSVPLLPGALVDYPDVLPSRLHPEGLGHGRTLFLVMKNYPCTLRQYLCVNTPSPRLAAMMLLQLLEGVDHLVQQGIAHRDLKSDNILVELDPDGCPWLVIADFGCCLADESIGLQLPFSSWYVDRGGNGCLMAPEVSTARPGPRAVIDYSKADAWAVGAIAYEIFGLVNPFYGQGKAHLESRSYQEAQLPALPESVPPDVRQLVRALLQREASKRPSARVAANVLHLSLWGEHILALKNLKLDKMVGWLLQQSAATLLANRLTEKCCVETKMKMLFLANLECETLCQAALLLCSWRAAL
chain 2: MVDYSVWDHIEVSDDEDETHPNIDTASLFRWRHQARVERMEQFQKEKEELDRGCRECKRKVAECQRKLKELEVAEGGKAELERLQAEAQQLRKEERSWEQKLEEMRKKEKSMPWNVDTLSKDGFSKSMVNTKPEKTEEDSEEVREQKHKTFVEKYEKQIKHFGMLRRWDDSQKYLSDNVHLVCEETANYLVIWCIDLEVEEKCALMEQVAHQTIVMQFILELAKSLKVDPRACFRQFFTKIKTADRQYMEGFNDELEAFKERVRGRAKLRIEKAMKEYEEEERKKRLGPGGLDPVEVYESLPEELQKCFDVKDVQMLQDAISKMDPTDAKYHMQRCIDSGLWVPNSKASEAKEGEEAGPGDPLLEAVPKTGDEKDVSV
B2: PINK1-V5 WT (V5-6xHis-tagged PINK1 wild type) [human] / TOM40 [human (endogenous in HeLa)] (parent)
chain 1: B1 chain 1
chain 2: MGNVLAASSPPAGPPPPPAPALVGLPPPPPSPPGFTLPPLGGSLGAGTSTSRSSERTPGAATASASGAAEDGACGCLPNPGTFEECHRKCKELFPIQMEGVKLTVNKGLSNHFQVNHTVALSTIGESNYHFGVTYVGTKQLSPTEAFPVLVGDMDNSGSLNAQVIHQLGPGLRSKMAIQTQQSKFVNWQVDGEYRGSDFTAAVTLGNPDVLVGSGILVAHYLQSITPCLALGGELVYHRRPGEEGTVMSLAGKYTLNNWLATVTLGQAGMHATYYHKASDQLQVGVEFEASTRMQDTSVSFGYQLDLPKANLLFKGSVDSNWIVGATLEKKLPPLPLTLALGAFLNHRKNKFQCGFGLTIG

Key:
[1] = variants of: B1; assay: co-immunoprecipitation (V5 agarose) with western blot quantification; settings: HeLa cells, read off a plot
[2] = variants of: B2; assay: as above; settings: HeLa cells, read off a plot

Variant | response (cdc37/V5 ratio) ([1]; 10 μM CCCP for 2 h) | response (cdc37/V5 ratio) ([1]; untreated (no CCCP)) | response (Tom40/V5 ratio) ([2]; 10 μM CCCP for 2 h) | response (Tom40/V5 ratio) ([2]; untreated (no CCCP))
chain 1 L347P | – | – | 0.19 | 0.35
chain 1 I368N | – | – | 0.32 | 0.42

The next lines start with the values.

response (cdc37/V5 ratio) ([1]; 10 μM CCCP for 2 h) | response (cdc37/V5 ratio) ([1]; untreated (no CCCP)) | response (Tom40/V5 ratio) ([2]; 10 μM CCCP for 2 h) | response (Tom40/V5 ratio) ([2]; untreated (no CCCP)) | Variant
0.66 | 0.61 | – | – | chain 1 I368N
0.55 | 0.58 | – | – | chain 1 L347P
